Test results: publication PMC12855784
Where two headings read alike, the source gives them in different places.

Experiments:
Assay in all cases: SEC-MALS
[1] = target: AcrIIA19 (full length, C-terminal 6×His tag) (Staphylococcus pseudintermedius)
[2] = target: Streptococcus pyogenes Cas9, full length, 6×His tagged (Streptococcus pyogenes) (UniProt Q99ZW2)
[3] = target: AcrIIA19 (full length, C-terminal 6×His tag) (Staphylococcus pseudintermedius); remark: listed apart in the source

UniProt Q99ZW2, sequence (Q99ZW2 whole entry): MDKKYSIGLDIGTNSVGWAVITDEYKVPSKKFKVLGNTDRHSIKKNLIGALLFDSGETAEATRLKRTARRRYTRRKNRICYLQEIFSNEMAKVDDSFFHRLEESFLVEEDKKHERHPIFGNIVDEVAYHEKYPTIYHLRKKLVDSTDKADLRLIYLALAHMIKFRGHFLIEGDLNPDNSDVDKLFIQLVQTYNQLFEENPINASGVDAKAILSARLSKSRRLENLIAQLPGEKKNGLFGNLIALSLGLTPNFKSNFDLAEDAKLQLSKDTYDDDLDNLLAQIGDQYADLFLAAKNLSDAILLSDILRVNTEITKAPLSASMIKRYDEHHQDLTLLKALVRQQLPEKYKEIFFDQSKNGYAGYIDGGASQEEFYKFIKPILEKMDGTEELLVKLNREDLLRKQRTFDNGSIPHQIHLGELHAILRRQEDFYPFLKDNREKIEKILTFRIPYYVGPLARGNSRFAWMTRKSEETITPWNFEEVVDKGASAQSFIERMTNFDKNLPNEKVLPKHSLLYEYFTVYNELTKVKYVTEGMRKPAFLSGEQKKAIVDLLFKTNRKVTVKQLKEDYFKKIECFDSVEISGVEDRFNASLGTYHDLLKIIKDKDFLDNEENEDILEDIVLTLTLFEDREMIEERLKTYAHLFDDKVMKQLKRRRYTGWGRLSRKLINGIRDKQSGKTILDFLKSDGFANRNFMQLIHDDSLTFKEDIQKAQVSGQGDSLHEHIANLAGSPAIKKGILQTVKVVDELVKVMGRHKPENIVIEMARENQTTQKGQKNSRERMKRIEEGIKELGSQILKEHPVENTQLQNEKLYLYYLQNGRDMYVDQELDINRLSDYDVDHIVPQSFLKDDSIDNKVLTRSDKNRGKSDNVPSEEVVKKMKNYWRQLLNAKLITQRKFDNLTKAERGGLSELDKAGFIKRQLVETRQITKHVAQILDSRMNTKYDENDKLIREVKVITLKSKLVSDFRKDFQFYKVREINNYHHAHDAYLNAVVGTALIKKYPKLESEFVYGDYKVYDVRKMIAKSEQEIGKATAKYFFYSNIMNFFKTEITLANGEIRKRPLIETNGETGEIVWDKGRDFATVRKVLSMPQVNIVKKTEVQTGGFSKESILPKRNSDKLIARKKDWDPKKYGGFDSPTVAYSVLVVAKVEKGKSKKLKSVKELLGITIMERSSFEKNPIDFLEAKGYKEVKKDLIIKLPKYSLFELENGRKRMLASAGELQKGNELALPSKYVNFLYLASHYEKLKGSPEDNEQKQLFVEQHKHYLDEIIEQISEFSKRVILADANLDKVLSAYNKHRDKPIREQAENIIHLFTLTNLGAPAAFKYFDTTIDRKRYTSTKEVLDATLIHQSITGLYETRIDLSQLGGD

AcrIIA19 (full length, C-terminal 6×His tag) (natural protein)
stoichiometry N [1]: 2
stoichiometry N (AcrIIA19 per Cas9) [2]: 1
stoichiometry N [3]: 2
